Experimental data reported in US20220412960A1.

Biological target: PAR-1 receptor on human platelets (human) (UniProt P25116)
Assay: cell-based or functional assay

PAR-1 receptor on human platelets (human), sequence (P25116 42-425): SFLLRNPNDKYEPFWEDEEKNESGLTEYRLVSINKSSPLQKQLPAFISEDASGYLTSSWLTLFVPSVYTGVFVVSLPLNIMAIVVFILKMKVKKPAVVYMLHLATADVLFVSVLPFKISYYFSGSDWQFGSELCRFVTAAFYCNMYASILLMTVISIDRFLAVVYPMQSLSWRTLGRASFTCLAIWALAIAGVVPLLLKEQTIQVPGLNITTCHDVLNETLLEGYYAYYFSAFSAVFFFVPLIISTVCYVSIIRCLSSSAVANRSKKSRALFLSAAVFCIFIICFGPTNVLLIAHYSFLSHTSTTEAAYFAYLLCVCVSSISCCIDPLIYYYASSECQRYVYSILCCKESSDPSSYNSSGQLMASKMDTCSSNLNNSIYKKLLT

platelet aggregation, light transmission aggregometry, washed platelets of sepsis patients at ICU admission, 10 µM TRAP-6: > 21.2%
platelet aggregation, light transmission aggregometry, washed platelets of sepsis patients at ICU admission, 10 µM TRAP-6 (mean): 34.2%
Substance: thrombin receptor agonist peptide TRAP-6
